{"source": "paper PMC13334617", "target": "wild-type AC fused to GFP (AC-GFP), encoded by plasmid pAC0-Gfp (Bordetella pertussis | not stated) (UniProt P0DKX7)", "assay": "two-hybrid", "data": [{"substance": "calmodulin (CaM) with a 6-histidine tag at its N-terminus and a tetra-cysteine tag at its C-terminus, encoded by plasmid pTCam (from UniProt P0DP23 1-149) (natural protein)", "values": [{"measurement": "cAMP", "result": "> 250", "unit": "nmol/mg"}, {"measurement": "ß gal (Rel. Units)", "result": 106, "unit": "Rel. Units"}]}]}
